Results published in publication PMC6941951, “Conditional control of RNA-guided nucleic acid cleavage and gene editing”.

Biological target: T1, dCas13a (LbuCas13a R1079A/K1080A) (Leptotrichia buccalis, UniProt C7NBY4 1-1159, R1079A;K1080A)
T1 sequence: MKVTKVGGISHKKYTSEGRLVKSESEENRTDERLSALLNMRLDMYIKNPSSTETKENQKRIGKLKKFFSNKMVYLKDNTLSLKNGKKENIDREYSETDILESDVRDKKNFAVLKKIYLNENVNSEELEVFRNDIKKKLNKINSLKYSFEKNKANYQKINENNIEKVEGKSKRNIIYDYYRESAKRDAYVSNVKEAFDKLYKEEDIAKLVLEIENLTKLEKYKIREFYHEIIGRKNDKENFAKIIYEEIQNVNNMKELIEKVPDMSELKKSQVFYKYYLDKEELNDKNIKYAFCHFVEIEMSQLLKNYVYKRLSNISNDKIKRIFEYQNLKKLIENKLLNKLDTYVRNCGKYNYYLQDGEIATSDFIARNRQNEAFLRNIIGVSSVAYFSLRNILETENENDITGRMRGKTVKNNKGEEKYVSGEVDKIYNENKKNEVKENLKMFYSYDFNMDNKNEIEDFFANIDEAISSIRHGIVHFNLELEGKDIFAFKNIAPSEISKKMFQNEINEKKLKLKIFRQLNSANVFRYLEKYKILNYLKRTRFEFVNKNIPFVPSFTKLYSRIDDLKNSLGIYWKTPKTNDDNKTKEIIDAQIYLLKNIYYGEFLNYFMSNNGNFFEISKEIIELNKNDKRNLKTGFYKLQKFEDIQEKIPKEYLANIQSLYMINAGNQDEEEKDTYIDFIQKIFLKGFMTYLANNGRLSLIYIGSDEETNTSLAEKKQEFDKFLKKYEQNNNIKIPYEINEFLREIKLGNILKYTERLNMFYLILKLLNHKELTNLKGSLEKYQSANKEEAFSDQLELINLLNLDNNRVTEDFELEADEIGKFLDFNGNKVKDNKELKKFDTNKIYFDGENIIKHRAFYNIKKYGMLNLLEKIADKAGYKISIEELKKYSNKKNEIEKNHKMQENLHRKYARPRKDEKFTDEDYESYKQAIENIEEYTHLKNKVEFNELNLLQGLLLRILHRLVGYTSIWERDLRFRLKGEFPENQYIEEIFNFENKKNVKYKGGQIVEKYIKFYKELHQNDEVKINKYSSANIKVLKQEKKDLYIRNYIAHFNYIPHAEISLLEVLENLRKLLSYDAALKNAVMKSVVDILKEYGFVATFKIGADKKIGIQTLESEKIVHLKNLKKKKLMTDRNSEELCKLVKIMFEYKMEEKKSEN
Assay: EMSA; no target RNA; dCas13a EMSA: 20 mM HEPES pH 6.8 (25 C), 50 mM KCl, 10 ug/mL BSA, 100 ug/mL yeast tRNA, 0.01% Igepal CA-630, 5% glycerol; 10 min at 37 C; 6% native PAGE at 4 C
Details: protein: recombinant; tags: His6-MBP removed with TEV protease; label: 5'-Cy3; single strand, repeat hairpin

B1: crRNA13a-Cy3 (unmasked) (structured_RNA)
RNA: GAUUUAGACUACCCCAAAAACGAAGGGGACUAAAACUAGAUUGCUGUUCUACCAAGUAAUCCAU
binding result: binds
